Measurements taken from paper PMC10572626, “NMR-Based Characterization of the Interaction between Yeast Oxa1-CTD and Ribosomes” (International Journal of Molecular Sciences, 2023).

Tests used:
[1] = biological target: C-terminal domain of yeast S. cerevisiae mitochondrial oxidase assembly protein 1 (Oxa1-CTD, W320-K402) (S. cerevisiae) (UniProt P39952); experiment: MST; Oxa1-CTD (20 µM, labelled with red fluorescent dye) kept constant; E. coli 70S or BSA titrated 1.21-20,000 nM; 20 mM HEPES pH 7.2, 75 mM NaCl, 20 mM MgCl2; three repeats
[2] = biological target: the molecule itself; experiment: SEC; Superdex 75 increase 10/300 GL in NMR buffer (20 mM HEPES pH 7.2, 75 mM NaCl, 20 mM MgCl2, 5 mM β-mercaptoethanol); oligomeric state inferred from elution volumes against standards of the column's manual

| Kd [1] | Molecule | stoichiometry N [2] |
| --- | --- | --- |
| 450 nM | E. coli 70S ribosome (complex) | – |
| – | C-terminal domain of yeast S. cerevisiae mitochondrial oxidase assembly protein 1 (Oxa1-CTD, W320-K402) (domain or fragment, UniProt P39952 320-402, looked up, red fluorescent dye (Monolith NT protein labeling kit) in the MST assay; 15N-labelled in the NMR titration, Oxa1, yeast S. cerevisiae, C-terminal domain, residues W320 to K402 (pI = 10.5); cloned into pET-14b with an N-terminal 6x His-tag and a thrombin cleavage site; also called C-terminus of Oxa1; pET14b-Oxa1-CTD (W320-K402)) WVRSKLKITEVAKPRTPIAGASPTENMGIFQSLKHNIQKARDQAERRQLMQDNEKKLQESFKEKRQNSKIKIVHKSNFINNKK | 2 |
